Laboratory results as given in paper PMC12365241.
Values joined by “and” are separate entries in the source; they are usually repeats but may differ in a detail not shown here. Equal values may be shown once.

Target: PorK (Porphyromonas gingivalis (endogenous))
Test: cryo-EM structure

- stoichiometry N: 32 and 33
Substance: PorK (natural protein)
